Source: US20070092508A1, “Detoxification depot for Alzheimer's disease” (Recombiant Technologies, LLC, priority 2005, published 2007)
Non-standard residues stand in square brackets, D forms with d. No end group written: not given here.

Assays:
Aβ [1] = details: AD model mice, after 1 day of treatment; cited from earlier work
Aβ [2] = target: Aβ (Homo sapiens, UniProt P05067); details: shortest fragment of Aβ1-40; cited from earlier work
Aβ fibril formation = Aβ fibril formation (Homo sapiens, UniProt P05067); details: microscopy; cited from earlier work
Sequence of Aβ fibril formation (P05067 672-711 limits assumed): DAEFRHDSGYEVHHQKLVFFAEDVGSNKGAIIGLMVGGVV

[3] = target: T1, biotinylated Aβ^1-42 peptide (Homo sapiens, UniProt P05067); test: Direct ELISA: plate-immobilised capture peptide probed with biotinylated Aβ1-42; format: binding; details: 1 μg/well capture peptide, 1 μg/ml biotinylated Aβ, 2 hours; compared with scrambled or irrelevant control peptide (FIG. 1a)
T1 construct: purchased
T1 sequence (P05067 672-713): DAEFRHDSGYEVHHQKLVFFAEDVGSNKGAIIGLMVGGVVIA
Method: (§1) FIG. 1a graphically illustrates binding of biotinylated Aβ^1-42 and biotinylated Aβ^1-40 peptide (SEQ ID NO: 2) by RI peptide. 96-well plate was coated with the capture peptide (1 μg/well of retro-inverso [RI], scrambled [SCR] or an irrelevant control peptide), blocked with gelatin and probed with 1 μg/ml of biotinylated Aβ peptide for 2 hours and streptavidin peroxidase for 1 hour. Experiments were repeated and were calculated as Mean±SE (N=2) and expressed as pmols Aβ^1-42/ml of binding solution. Graded concentrations of biotinylated Aβ^1-42 peptide (SEQ ID NO: 3) was used as a calibration standard.
(§2) Testing the binding and stability of biotinylated Aβ peptides in binding solution.

[4] = target: T2, biotinylated Aβ^1-40 peptide (Homo sapiens, UniProt P05067); test: Direct ELISA: plate-immobilised capture peptide probed with biotinylated Aβ1-40; format: binding; details: 1 μg/well capture peptide, 1 μg/ml biotinylated Aβ, 2 hours; compared with scrambled or irrelevant control peptide (FIG. 1a)
T2 construct: purchased
T2 sequence (P05067 672-711): as the sequence (P05067 672-711 limits assumed) above
Method: as §1, §2

[5] = target: biotinylated Abeta 1-40 peptide; test: binding experiments with the gel, ELISA of the solution
Sequence of biotinylated Abeta 1-40 peptide (peptide, as listed by the source): as the sequence (P05067 672-711 limits assumed) above

Sequence of Aβ (P05067 672-711 limits assumed): as above
Sequence of Aβ (Homo sapiens, UniProt P05067) (P05067 672-711 limits assumed): as above

GM1
levels of Aβ in brain (Aβ [1]): reduced in half
reduction of Aβ in brain (Aβ [1]): ~500 ng/g tissue

KLVFF
Aβ binding capacity (Aβ [2]): consistently high Aβ binding capacity
effect on fibril formation in vitro (Aβ fibril formation): able to interfere with fibril formation

gelsolin
levels of Aβ in brain (Aβ [1]): reduced in half
reduction of Aβ in brain (Aβ [1]): ~500 ng/g tissue

phe-phe-val-leu-lys-Cys ([dF][dF][dV][dL][dK][dC]; not fully specified (C-terminus); printed as phe-phe-val-leu-lys-cys) [RI peptide]
binding of biotinylated Aβ^1-42 to immobilised peptide [3]: significant and specific binding
binding of biotinylated Aβ^1-40 to immobilised peptide [4]: significant and specific binding

B1: detox gel (RI gel): retro-inverso peptide phe-phe-val-leu-lys-Cys linked by its cysteine thiol to a cross-linked 8-arm PEG hydrogel (peptide)
peptide: FFVLKC
modifications: not fully specified; composed of D-amino acids; Cys thiol linked to vinyl sulfone-PEG of the gel matrix; C-terminus amidated per the note to Table 1
percent of possible binding in a 1:1 complex [5]: 5%
